Data on three substances can be found in paper PMC6467980.

One data set has as its system P04501. Kind of data set: SEC-MALS; Superdex 200 Increase 10/300 GL, 1X TBS, 1 mL/min; 100 µL at 2.5-2.8 mg/mL in PBS with 5% glycerol; native (oxidized) or reduced with DTT (1.6 mM, 50 °C 10 min, then a further 1.6 mM). In general terms: Size exclusion chromatography separates by hydrodynamic size, large species first.
Data set [1] concerns the target JO-4 (Adenovirus serotype 3 (Ad3)) (UniProt P04501). Described as above.
For data set [2], the target named is recombinant human desmoglein 2 (human) (UniProt Q14126).
Data set [3] shares this target. The source holds these as a separate data set.
The target is the same in data set [4]. Kind of data set: SPR; rhDSG2 amine-coupled to a CM5 chip (6000 RU), junction openers flowed; Biacore 3000, 25 °C; 10 mM HEPES, 150 mM NaCl, 0.005% surfactant P20, 2 mM CaCl2 pH 7.4; 15 µl/min; 1:1 Langmuir fit; apparent (avidity).
In data set [5] the target is JO-4 (Adenovirus serotype 3 (Ad3)) (UniProt P04501). Kind of data set: SPR; JO-4 or GB7_(V239D) amine-coupled to a CM5 chip (approximately 6000 RU), rhDSG2 flowed (17.4 nM to 0.87 nM, triplicate); Biacore 3000, 25 °C; 10 mM HEPES, 150 mM NaCl, 0.005% surfactant P20, 2 mM CaCl2 pH 7.4; 15 µl/min; 1:1 Langmuir fit; apparent (avidity). (In general: In SPR one partner is held on a chip, and binding of the other changes the refractive index at the surface.)

Data set [6] concerns the target GB7_(V239D) (Adenovirus serotype 3 (Ad3)) (UniProt P04501). Described as above.

pKd: −log10 of the molar value. Where only a bound is given, the exact number is not on record here.

With JO-4, in the data set with P04501, the % total as Aggregate (Agg.), oxidized turned out to be 90% and the % total as Aggregate (Agg.), reduced was found to be 94%.
Broadly, the stoichiometry N is the number of molecules, sites or subunits per partner or assembly. One may read the pKd as the negative decadic logarithm of the Kd, by convention in mol/L. As a reminder, the koff is the rate constant with which the complex falls apart. Usually kon stands for the rate constant with which the complex forms. As to “JO-4 (from UniProt P04501 127-319) (designed binder)”, in data set [1], the % total as Monomer (M), oxidized turned out to be 4%; the % total as Monomer (M), reduced turned out to be 3%; the % total as Multimer (Multi.), oxidized came to 4%; the % total as Multimer (Multi.), reduced is < 0.5%. Also, in data set [1], the % total as Trimer (T), oxidized turned out to be 2%; the % total as Trimer (T), reduced came to 2%; the % total as Trimer-Dimer (T-D), oxidized is < 0.5%; the % total as Trimer-Dimer (T-D), reduced was found to be 1%. This substance showed a stoichiometry N in data set [1] of 3. For the same substance, the DSG2 shedding (fold over PBS treated at 48 h), ELISA of shed DSG2 in data set [2] was determined as 1.44 fold. In addition, in data set [3], the VIA IC50: inhibition of entry of Ad3-GFP reporter virus into HeLa cells (blocks Ad3 virus on DSG2) was determined as 0.067 µg/mL. Further, in data set [4], the pKd was 7.94, the dissociation rate constant (koff) is 0.00264 s⁻¹ and the association rate constant (kon) was found to be 232000 M⁻¹ s⁻¹.
“recombinant human desmoglein 2 (from UniProt Q14126 50-609) (natural protein)”: in data set [5], the pKd is 9.24, the koff turned out to be 0.00046 s⁻¹ and the kon came out at 790000 M⁻¹ s⁻¹. In data set [6], the pKd is 8.92, the koff was found to be 0.00075 s⁻¹ and the kon was 630000 M⁻¹ s⁻¹.
